Values of other authors in paper PMC4339652.
pKd: −log10 of the molar value. Several values for one entry are separate records, joined by “and”; a condition that tells them apart may be missing. Identical values can stand only once. Like-named read-outs stand apart in the source and are kept apart here. Values belong to the substance of their own block, whether it stands above or below them.

Key:
[1] = target: TolA TolAIII (Escherichia coli) (UniProt P19934); test: SPR
[2] = target: TolA TolAII-III (Escherichia coli) (UniProt P19934); test: SPR
Sequence of TolA TolAII-III (Escherichia coli) (P19934 48-421): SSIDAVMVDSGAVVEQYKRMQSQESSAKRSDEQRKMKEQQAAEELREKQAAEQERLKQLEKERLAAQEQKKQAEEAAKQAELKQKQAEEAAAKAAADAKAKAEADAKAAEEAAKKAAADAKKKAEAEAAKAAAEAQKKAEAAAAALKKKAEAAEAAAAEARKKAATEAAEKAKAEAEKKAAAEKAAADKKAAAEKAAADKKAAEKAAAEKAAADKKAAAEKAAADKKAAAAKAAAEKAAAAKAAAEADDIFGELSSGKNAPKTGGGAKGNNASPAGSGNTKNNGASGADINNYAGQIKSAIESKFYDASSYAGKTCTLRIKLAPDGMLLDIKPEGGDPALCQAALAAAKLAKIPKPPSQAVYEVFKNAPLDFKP

[3] = target: TolA TolAIII (Escherichia coli) (UniProt P19934); test: ITC
[4] = target: TolA TolAIII (Escherichia coli) (UniProt P19934); test: stopped flow fluorescence
TolB (Escherichia coli) [5] = target: TolB (Escherichia coli) (UniProt P0A855); test: ITC
Sequence of TolB (Escherichia coli) (P0A855 22-430): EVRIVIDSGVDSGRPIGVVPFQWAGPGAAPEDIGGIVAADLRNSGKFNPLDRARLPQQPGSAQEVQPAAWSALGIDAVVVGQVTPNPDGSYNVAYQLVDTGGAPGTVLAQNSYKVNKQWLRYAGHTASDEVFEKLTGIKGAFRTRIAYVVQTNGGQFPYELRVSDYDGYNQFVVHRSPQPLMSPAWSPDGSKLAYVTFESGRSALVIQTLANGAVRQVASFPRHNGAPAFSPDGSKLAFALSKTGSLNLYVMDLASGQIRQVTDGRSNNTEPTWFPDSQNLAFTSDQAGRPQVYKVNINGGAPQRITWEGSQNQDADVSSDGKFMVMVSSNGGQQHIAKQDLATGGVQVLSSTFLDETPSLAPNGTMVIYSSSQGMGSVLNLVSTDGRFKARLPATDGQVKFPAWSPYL

[6] = target: Colicin N 40-90 (Escherichia coli) (UniProt P08083); test: SPR
Sequence of Colicin N 40-90 (Escherichia coli) (P08083 40-90): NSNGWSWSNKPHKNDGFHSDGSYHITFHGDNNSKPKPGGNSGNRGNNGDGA

[7] = target: Colicin N T domain (Escherichia coli) (UniProt P08083)
Sequence of Colicin N T domain (Escherichia coli) (P08083 1-90): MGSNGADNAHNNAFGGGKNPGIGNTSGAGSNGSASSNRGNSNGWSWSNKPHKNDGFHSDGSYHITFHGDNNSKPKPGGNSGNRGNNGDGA

TolB (Escherichia coli) [8] = target: TolB (Escherichia coli) (UniProt P0A855); test: ITC; remark: listed apart in the source
[9] = target: G3p N1 (Filamentous phage) (UniProt O80297)
Sequence of G3p N1 (Filamentous phage) (O80297 18-79): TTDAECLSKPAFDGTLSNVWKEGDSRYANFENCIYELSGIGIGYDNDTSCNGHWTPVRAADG

Sequence of TolA TolAII-III (P19934 48-421): as the sequence (P19934 48-421) above
Sequence of Colicin N T domain (1-90) (P08083 1-90): as the sequence (P08083 1-90) above
Sequence of TolA TolAIII (P19934 311-421): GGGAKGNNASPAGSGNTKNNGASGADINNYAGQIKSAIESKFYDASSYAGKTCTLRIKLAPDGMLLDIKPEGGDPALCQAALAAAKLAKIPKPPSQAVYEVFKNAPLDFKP
Sequence of TolA TolAIII (Escherichia coli) (P19934 311-421): as above
Sequence of Colicin N 40-90 (P08083 40-90): as the sequence (P08083 40-90) above
Sequence of TolA TolA (P19934 whole entry): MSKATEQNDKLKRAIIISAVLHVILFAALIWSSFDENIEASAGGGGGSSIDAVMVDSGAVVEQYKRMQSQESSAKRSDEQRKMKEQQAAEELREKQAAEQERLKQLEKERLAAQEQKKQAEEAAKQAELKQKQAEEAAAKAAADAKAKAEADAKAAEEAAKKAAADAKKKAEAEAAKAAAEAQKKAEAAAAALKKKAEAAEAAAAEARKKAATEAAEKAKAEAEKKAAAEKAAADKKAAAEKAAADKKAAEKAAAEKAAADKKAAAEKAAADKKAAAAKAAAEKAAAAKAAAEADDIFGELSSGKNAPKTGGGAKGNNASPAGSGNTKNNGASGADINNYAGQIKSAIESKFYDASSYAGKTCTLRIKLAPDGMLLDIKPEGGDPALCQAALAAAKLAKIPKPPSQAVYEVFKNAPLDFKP
Sequence of G3p N1 domain (P69168 16-88): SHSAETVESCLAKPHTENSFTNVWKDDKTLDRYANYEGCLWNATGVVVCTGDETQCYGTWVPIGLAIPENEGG

Substance: Colicin N 40-90 (from UniProt P08083)
pKd [1]: 6.07 and 6.72
pKd [2]: 6.03

Substance: Colicin N T domain (1-90) (from UniProt P08083)
pKd [1]: 5.90
pKd [3]: 6.00
pKd [4]: 5.64

Substance: G3p N1 domain (from UniProt P69168)
pKd [1]: 6.00

pKd (TolB (Escherichia coli) [5]): 4.40
Substance: TolA TolA (from UniProt P19934)

Substance: TolA TolAII-III (from UniProt P19934)
pKd [6]: 6.72 and 6.03 and 6.07

Substance: TolA TolAIII (from UniProt P19934)
pKd [7]: 6.00
pKd (TolB (Escherichia coli) [8]): 4.40
pKd (TolB (Escherichia coli) [5]): 4.89
pKd [9]: 6.00
